Measurements from EP4569003A2 (dated 2026).
Each block holds one binder with its values, some of them ahead of it.

How the values were obtained:
[1] = target: T1, CLDN6 cytoplasmic domain peptide SHYMARYSTSAPAIS (SEQ ID NO: 99) (human); assay: peptide epitope mapping (FIG 2)
T1 peptide: SHYMARYSTSAPAIS

[2] = target: T2, CLDN3-GFP, expressed in HEK293 T cells (UniProt O15551 1-220); assay: immunohistochemistry on FFPE engineered HEK293 cells
T2 construct: whole, on cells; also called Claudin3; HEK293 CLDN3; not shown: GFP fused to CLDN3
T2 sequence (looked up): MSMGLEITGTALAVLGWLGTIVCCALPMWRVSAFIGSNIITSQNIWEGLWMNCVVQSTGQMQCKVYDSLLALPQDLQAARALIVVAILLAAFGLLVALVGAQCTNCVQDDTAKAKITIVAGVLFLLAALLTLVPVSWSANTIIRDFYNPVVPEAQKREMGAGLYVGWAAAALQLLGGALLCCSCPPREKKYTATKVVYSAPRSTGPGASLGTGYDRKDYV

[3] = target: T3, CLDN4-GFP, expressed in HEK293 T cells (UniProt O14493 1-209); assay: as above
T3 construct: whole, on cells; also called Claudin4; HEK293 4; not shown: GFP fused to CLDN4
T3 sequence (looked up): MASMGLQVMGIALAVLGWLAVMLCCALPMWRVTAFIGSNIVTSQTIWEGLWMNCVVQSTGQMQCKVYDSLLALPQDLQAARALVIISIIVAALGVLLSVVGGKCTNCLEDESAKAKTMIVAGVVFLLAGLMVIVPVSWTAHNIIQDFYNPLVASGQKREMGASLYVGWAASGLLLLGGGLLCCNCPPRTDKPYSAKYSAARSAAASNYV

[4] = target: T4, CLDN9-GFP, expressed in HEK293 T cells (UniProt O95484 1-217); assay: as above
T4 construct: whole, on cells; also called Claudin9; HEK293 9; not shown: GFP fused to CLDN9
T4 sequence (looked up): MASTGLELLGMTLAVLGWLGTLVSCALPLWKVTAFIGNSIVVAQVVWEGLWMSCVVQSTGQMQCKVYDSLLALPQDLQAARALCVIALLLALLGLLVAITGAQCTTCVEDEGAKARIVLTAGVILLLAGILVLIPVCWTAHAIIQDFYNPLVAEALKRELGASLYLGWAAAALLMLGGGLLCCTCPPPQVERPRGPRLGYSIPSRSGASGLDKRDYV

binding result [1]: binds | binding result [2]: no binding | binding result [3]: no binding | binding result [4]: no binding
B1: Claudin-6 (CLDN6) antibody 3D07 (antibody, V domains shown)
VH: EVQLQQFGAELVKPGASVKISCRTSGYTFTDYNIDWVRQSHGKSLEWIGDINPNSENTDYNQKFKGKATLTVDKSSSTAYLELRSLTSEDTAVYYCARSPYGNYVGYLMDYWGQGTSVTVSS
VL: DVVLTQTPLSLPVNIGDQASISCRSTKSLLNSDGFTYLDWYLQKPGQSPQVLIYLISNRFSGVPDRFSGNGSGTDFTLKISRVEAEDLGVYYCFQSNYIPLTFGAGTKLELK
notes: Mouse hybridoma clone; Detection was with goat anti-mouse IgG; also called clone 3D07

binding result [2]: no binding | binding result [3]: no binding | binding result [4]: no binding
B2: Claudin-6 (CLDN6) antibody 3H11 (antibody, V domains shown)
VH: EIQLQQSGAELVRPGALVRLSCKPSGFNIKDYYIHWVKERPEQGLEWIGWIDPDNGDTLYDSKFQGKASLTADTSSNTAYLQLTSLTSEDTAVYYCATYRYSFAYWGQGTLVTVSA
VL: DIQMNQSPSSLSASLGDTITITCHASQNINVWLNWYQQKPGNIPKLLIFKASNLYTGVPSRFSGGGSGTGFTLTISSLQPEDIATYYCQQGQTYPLTFGGGTKLEIK
notes: Mouse hybridoma clone; Detection was with goat anti-mouse IgG; also called clone 3H11
